The values below come from the supplement of paper PMC5998384.

For data set [1], the system named is HeLa Kyoto. Briefly: solubility change mitosis vs G1/S (difference of NP-40 vs SDS log2 ratios) (log2 ratio difference); higher = more soluble in mitosis.
The test system of data set [2] is HeLa Kyoto. Briefly: melting temperature (median over replicates), in situ; higher = more thermally stable.
For data set [3], the system named is HeLa Kyoto. The experiment in a line: thermal stability score vs G1/S (z-score of summed log2 fold changes over temperatures); higher = more thermally stable than in G1/S.
The subject of data set [4] is HeLa Kyoto. The experiment in a line: solubility in G1/S (NP-40 vs SDS abundance) (log2 ratio); higher = more soluble. As to conditions: cell cycle stage: G1/S.
The mark [5] stands for this setting: cell cycle stage: early G1 (4.5 h after nocodazole release).
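Throughout, for melting temperature (median over replicates), in situ: HeLa Kyoto cells synchronized by double thymidine or nocodazole block, proteins quantified by TMT10plex mass spectrometry, three independent biological replicates.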
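Throughout, for solubility change mitosis vs G1/S (difference of NP-40 vs SDS log2 ratios): synchronized HeLa Kyoto cells (double thymidine block for G1/S, nocodazole release for mitosis), protein amounts in NP-40 versus SDS lysates quantified by mass spectrometry, three biological replicates.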
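Throughout, for solubility in G1/S (NP-40 vs SDS abundance): HeLa Kyoto cells arrested at G1/S by double thymidine block, proteins quantified by TMT10plex mass spectrometry in mild NP-40 versus SDS extracts, three biological replicates.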
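Throughout, for thermal stability score vs G1/S (z-score of summed log2 fold changes over temperatures): synchronized HeLa Kyoto cells, proteins quantified by TMT10plex mass spectrometry, three biological replicates, mitosis taken 0.5 h after nocodazole release, G1/S directly after double thymidine block.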

For “MSKLKSSESVRVVVRCRPMNGKEKAASYDKVVDVDVKLGQVSVKNPKGTAHEMPKTFTFDAVYDWNAKQFELYDETFRPLVDSVLQGFNGTIFAYGQTGTGKTYTMEGIRGDPEKRGVIPNSFDHIFTHISRSQNQQYLVRASYLEIYQEEIRDLLSKDQTKRLELKERPDTGVYVKDLSSFVTKSVKEIEHVMNVGNQNRSVGATNMNEHSSRSHAIFVITIECSEVGLDGENHIRVGKLNLVDLAGSERQAKTGAQGERLKEATKINLSLSALGNVISALVDGKSTHIPYRDSKLTRLLQDSLGGNAKTVMVANVGPASYNVEETLTTLRYANRAKNIKNKPRVNEDPKDALLREFQEEIARLKAQLEKRSIGRRKRREKRREGGGSGGGGEEEEEEGEEGEEEGDDKDDYWREQQEKLEIEKRAIVEDHSLVAEEKMRLLKEKEKKMEDLRREKDAAEMLGAKIKAMESKLLVGGKNIVDHTNEQQKILEQKRQEIAEQKRREREIQQQMESRDEETLELKETYSSLQQEVDIKTKKLKKLFSKLQAVKAEIHDLQEEHIKERQELEQTQNELTRELKLKHLIIENFIPLEEKSKIMNRAFFDEEEDHWKLHPITRLENQQMMKRPVSAVGYKRPLSQHARMSMMIRPEARYRAENIVLLELDMPSRTTRDYEGPAIAPKVQAALDAALQDEDEIQVDASSFESTANKKSKARPKSGRKSGSSSSSSGTPASQLYPQSRGLVPK [KIF3B]”, the “solubility change mitosis (log2)” value in data set [1] was -0.0759. In addition, the melting temperature in data set [2] (cell cycle stage: G1/S) and in data set [2] (cell cycle stage: mitosis) was 50.3 °C in each case. Also, the thermal stability score was determined as 0.792 in data set [3] (setting [5]) and 0.328 in data set [3] (cell cycle stage: mitosis). Besides, the “solubility in G1/S (log2)” value in data set [4] was determined as 0.0133.
On to “MSKPELKEDKMLEVHFVGDDDVLNHILDREGGAKLKKERAQLLVNPKKIIKKPEYDLEEDDQEVLKDQNYVEIMGRDVQESLKNGSATGGGNKVYSFQNRKHSEKMAKLASELAKTPQKSVSFSLKNDPEITINVPQSSKGHSASDKVQPKNNDKSEFLSTAPRSLRKRLIVPRSHSDSESEYSASNSEDDEGVAQEHEEDTNAVIFSQKIQAQNRVVSAPVGKETPSKRMKRDKTSDLVEEYFEAHSSSKVLTSDRTLQKLKRAKLDQQTLRNLLSKVSPSFSAELKQLNQQYEKLFHKWMLQLHLGFNIVLYGLGSKRDLLERFRTTMLQDSIHVVINGFFPGISVKSVLNSITEEVLDHMGTFRSILDQLDWIVNKFKEDSSLELFLLIHNLDSQMLRGEKSQQIIGQLSSLHNIYLIASIDHLNAPLMWDHAKQSLFNWLWYETTTYSPYTEETSYENSLLVKQSGSLPLSSLTHVLRSLTPNARGIFRLLIKYQLDNQDNPSYIGLSFQDFYQQCREAFLVNSDLTLRAQLTEFRDHKLIRTKKGTDGVEYLLIPVDNGTLTDFLEKEEEEA [ORC2]”, for which the “solubility change mitosis (log2)” value in data set [1] was determined as 0.06. Also, the melting temperature turned out to be 48.1 °C in data set [2] (cell cycle stage: G1/S) and 49.2 °C in data set [2] (cell cycle stage: mitosis). The figures for the thermal stability score in data set [3] (setting [5]) and in data set [3] (cell cycle stage: mitosis) were 1.23 and 1.67, respectively. The “solubility in G1/S (log2)” value in data set [4] is 0.117.
Regarding “MSLAFKIFFPQTLRALSRKELCLFRKHHWRDVRQFSQWSETDLLHGHPLFLRRKPVLSFQGSHLRSRATYLVFLPGLHVGLCSGPCEMAEQRFCVDYAKRGTAGCKKCKEKIVKGVCRIGKVVPNPFSESGGDMKEWYHIKCMFEKLERARATTKKIEDLTELEGWEELEDNEKEQITQHIADLSSKAAGTPKKKAVVQAKLTTTGQVTSPVKGASFVTSTNPRKFSGFSAKPNNSGEAPSSPTPKRSLSSSKCDPRHKDCLLREFRKLCAMVADNPSYNTKTQIIQDFLRKGSAGDGFHGDVYLTVKLLLPGVIKTVYNLNDKQIVKLFSRIFNCNPDDMARDLEQGDVSETIRVFFEQSKSFPPAAKSLLTIQEVDEFLLRLSKLTKEDEQQQALQDIASRCTANDLKCIIRLIKHDLKMNSGAKHVLDALDPNAYEAFKASRNLQDVVERVLHNAQEVEKEPGQRRALSVQASLMTPVQPMLAEACKSVEYAMKKCPNGMFSEIKYDGERVQVHKNGDHFSYFSRSLKPVLPHKVAHFKDYIPQAFPGGHSMILDSEVLLIDNKTGKPLPFGTLGVHKKAAFQDANVCLFVFDCIYFNDVSLMDRPLCERRKFLHDNMVEIPNRIMFSEMKRVTKALDLADMITRVIQEGLEGLVLKDVKGTYEPGKRHWLKVKKDYLNEGAMADTADLVVLGAFYGQGSKGGMMSIFLMGCYDPGSQKWCTVTKCAGGHDDATLARLQNELDMVKISKDPSKIPSWLKVNKIYYPDFIVPDPKKAAVWEITGAEFSKSEAHTADGISIRFPRCTRIRDDKDWKSATNLPQLKELYQLSKEKADFTVVAGDEGSSTTGGSSEENKGPSGSAVSRKAPSKPSASTKKAEGKLSNSNSKDGNMQTAKPSAMKVGEKLATKSSPVKVGEKRKAADETLCQTKVLLDIFTGVRLYLPPSTPDFSRLRRYFVAFDGDLVQEFDMTSATHVLGSRDKNPAAQQVSPEWIWACIRKRRLVAPC [LIG3]”, the “solubility change mitosis (log2)” value in data set [1] was determined as 0.0705. In addition, the melting temperature in data set [2] (cell cycle stage: G1/S) was found to be 46.3 °C; in data set [2] (cell cycle stage: mitosis), 48.8 °C. For the same sequence, the thermal stability score in data set [3] (setting [5]) is 0.91; in data set [3] (cell cycle stage: mitosis), 2.49. In addition, in data set [4], the “solubility in G1/S (log2)” value is -0.13.
In the case of “MSLKNEPRVNTSALQKIAADMSNIIENLDTRELHFEGEEVDYDVSPSDPKIQEVYIPFSAIYNTQGFKEPNIQTYLSGCPIKAQVLEVERFTSTTRVPSINLYTIELTHGEFKWQVKRKFKHFQEFHRELLKYKAFIRIPIPTRRHTFRRQNVREEPREMPSLPRSSENMIREEQFLGRRKQLEDYLTKILKMPMYRNYHATTEFLDISQLSFIHDLGPKGIEGMIMKRSGGHRIPGLNCCGQGRACYRWSKRWLIVKDSFLLYMKPDSGAIAFVLLVDKEFKIKVGKKETETKYGIRIDNLSRTLILKCNSYRHARWWGGAIEEFIQKHGTNFLKDHRFGSYAAIQENALAKWYVNAKGYFEDVANAMEEANEEIFITDWWLSPEIFLKRPVVEGNRWRLDCILKRKAQQGVRIFIMLYKEVELALGINSEYTKRTLMRLHPNIKVMRHPDHVSSTVYLWAHHEKLVIIDQSVAFVGGIDLAYGRWDDNEHRLTDVGSVKRVTSGPSLGSLPPAAMESMESLRLKDKNEPVQNLPIQKSIDDVDSKLKGIGKPRKFSKFSLYKQLHRHHLHDADSISSIDSTSSYFNHYRSHHNLIHGLKPHFKLFHPSSESEQGLTRPHADTGSIRSLQTGVGELHGETRFWHGKDYCNFVFKDWVQLDKPFADFIDRYSTPRMPWHDIASAVHGKAARDVARHFIQRWNFTKIMKSKYRSLSYPFLLPKSQTTAHELRYQVPGSVHANVQLLRSAADWSAGIKYHEESIHAAYVHVIENSRHYIYIENQFFISCADDKVVFNKIGDAIAQRILKAHRENQKYRVYVVIPLLPGFEGDISTGGGNALQAIMHFNYRTMCRGENSILGQLKAELGNQWINYISFCGLRTHAELEGNLVTELIYVHSKLLIADDNTVIIGSANINDRSMLGKRDSEMAVIVQDTETVPSVMDGKEYQAGRFARGLRLQCFRVVLGYLDDPSEDIQDPVSDKFFKEVWVSTAARNATIYDKVFRCLPNDEVHNLIQLRDFINKPVLAKEDPIRAEEELKKIRGFLVQFPFYFLSEESLLPSVGTKEAIVPMEVWT [PLD1]”, in data set [1], the “solubility change mitosis (log2)” value was -0.0809. The melting temperature in data set [2] (cell cycle stage: G1/S) came to 51.6 °C; in data set [2] (cell cycle stage: mitosis), 51.7 °C. In addition, the thermal stability score in data set [3] (setting [5]) was -0.632; in data set [3] (cell cycle stage: mitosis) it was -0.457. In addition, the “solubility in G1/S (log2)” value in data set [4] was -0.336.
For “MSLLFSRCNSIVTVKKNKRHMAEVNASPLKHFVTAKKKINGIFEQLGAYIQESATFLEDTYRNAELDPVTTEEQVLDVKGYLSKVRGISEVLARRHMKVAFFGRTSNGKSTVINAMLWDKVLPSGIGHTTNCFLRVEGTDGHEAFLLTEGSEEKRSAKTVNQLAHALHQDKQLHAGSLVSVMWPNSKCPLLKDDLVLMDSPGIDVTTELDSWIDKFCLDADVFVLVANSESTLMQTEKHFFHKVSERLSRPNIFILNNRWDASASEPEYMEEVRRQHMERCTSFLVDELGVVDRSQAGDRIFFVSAKEVLNARIQKAQGMPEGGGALAEGFQVRMFEFQNFERRFEECISQSAVKTKFEQHTVRAKQIAEAVRLIMDSLHMAAREQQVYCEEMREERQDRLKFIDKQLELLAQDYKLRIKQITEEVERQVSTAMAEEIRRLSVLVDDYQMDFHPSPVVLKVYKNELHRHIEEGLGRNMSDRCSTAITNSLQTMQQDMIDGLKPLLPVSVRSQIDMLVPRQCFSLNYDLNCDKLCADFQEDIEFHFSLGWTMLVNRFLGPKNSRRALMGYNDQVQRPIPLTPANPSMPPLPQGSLTQEEFMVSMVTGLASLTSRTSMGILVVGGVVWKAVGWRLIALSFGLYGLLYVYERLTWTTKAKERAFKRQFVEHASEKLQLVISYTGSNCSHQVQQELSGTFAHLCQQVDVTRENLEQEIAAMNKKIEVLDSLQSKAKLLRNKAGWLDSELNMFTHQYLQPSR [MFN2]”, the “solubility change mitosis (log2)” value in data set [1] is -0.043. Further, the melting temperature in data set [2] (cell cycle stage: G1/S) came to 50.8 °C; in data set [2] (cell cycle stage: mitosis) it was 51.3 °C. Further, the thermal stability score in data set [3] (setting [5]) came out at 1.32; in data set [3] (cell cycle stage: mitosis), 0.83. The “solubility in G1/S (log2)” value in data set [4] was -0.174.
